This data set concerns F1*sub RNA substrate (template-directed ligation). The data set can be described thus: fraction ligated after 30 min (ligated reads / total reads); higher = more ligase activity; sequences stand for … in GAGACCGCAACTGAAAAGTTGT…AGTTCTGCACGTAGAAGCAAAAGGC
Conditions: 42 °C. Here is the method: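 Chip-synthesised pool of F1* ligase ribozyme variants (all single and double substitutions, single, double and triple deletions in the catalytic core and GAA bulge, plus designed variants) was transcribed with T7 and reacted as a pool with excess substrate F1*sub for 30 min at 42 C in 50 mM EPPS pH 8.5, 25 mM MgCl2. Ligated and unligated bands were separated by PAGE, barcoded by RT and deep sequenced; fraction ligated = ligated reads / total reads per variant, relative activity = FL / FL of wild type (0.826). Sequences are the DNA template of the ribozyme.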
For the sequence TAACTTGTCGTAAGAACTTTGGATGGGTTGA [3d518], the fraction ligated was determined as 0.21.

In the case of TAACTTGTCGTAAGACACTTGGATGGGTTGA [3d521], the fraction ligated turned out to be 0.266.

The sequence TAACTTGTCGTAAGACACTTTGATGGGTTGA [3d522] registered a fraction ligated of 0.0453.

Sequence TAACTTGTCGTAAGACACTTTGGAGGGTTGA [3d524] came in with a fraction ligated of 0.0881.

TAACTTGTCGTAAGACACTTTGGATGGGTTA [3d526] yielded a fraction ligated of 0.0297.

For the sequence TAACTTGTCGTAAGACACTTTGGATGGGTTG [3d527], the fraction ligated is 0.153.

Turning to TAACTTGTCGTAAGACACTTTGGATGGGTTGA [2d47], the fraction ligated is 0.271.

TAACTTGTCGTAAGACACTTTGGATGGTTGA [3d525]: the fraction ligated stood at 0.309.

In turn, TAACTTGTCGTAAGACACTTTGGTGGGTTGA [3d523] gave a fraction ligated of 0.0256.

TAACTTGTCGTAAGACATTTGGATGGGTTGA [3d520] showed a fraction ligated of 0.38.

On to TAACTTGTCGTAAGACCTTTGGATGGGTTGA [3d519], for which the fraction ligated was found to be 0.196.

In the case of TAACTTGTCGTAAGCACTTTGGATGGGTTGA [3d517], the fraction ligated was 0.142.

Consider TAACTTGTCGTAGACACTTTGGATGGGTTGA [3d515], for which the fraction ligated is 0.177.

Consider TAACTTGTCTAAGACACTTTGGATGGGTTGA [3d513], for which the fraction ligated is 0.123.

For TAACTTGTGTAAGACACTTTGGATGGGTTGA [3d512], the fraction ligated is 0.547.

Sequence TAACTTTCGTAAGACACTTTGGATGGGTTGA [3d510] gave a fraction ligated of 0.0478.

In the case of TAATTGTCGTAAGACACTTTGGATGGGTTGA [3d508], the fraction ligated is 0.0528.

Turning to TACACGTCGTAAGACACTTTGGATGGGTTGA [3d566], the fraction ligated came to 0.266.

In turn, TACACTGCGTAAGACACTTTGGATGGGTTGA [3d568] displayed a fraction ligated of 0.177.

Consider TACACTGTCGAAGACACTTTGGATGGGTTGA [3d571], for which the fraction ligated amounted to 0.346.

TACACTGTCGTAAACACTTTGGATGGGTTGA [3d573]: the fraction ligated was determined as 0.181.

For TACACTGTCGTAAGAACTTTGGATGGGTTGA [3d575], the fraction ligated was found to be 0.162.

TACACTGTCGTAAGACACTTGGATGGGTTGA [3d578] had a fraction ligated of 0.394.

TACACTGTCGTAAGACACTTTGATGGGTTGA [3d579]: the fraction ligated amounted to 0.279.

TACACTGTCGTAAGACACTTTGGAGGGTTGA [3d581] registered a fraction ligated of 0.292.

For TACACTGTCGTAAGACACTTTGGATGGGTTA [3d583], the fraction ligated stood at 0.069.

Take TACACTGTCGTAAGACACTTTGGATGGGTTG [3d584]: the fraction ligated was determined as 0.321.

On to TACACTGTCGTAAGACACTTTGGATGGGTTGA [2d50], for which the fraction ligated was 0.432.

In turn, TACACTGTCGTAAGACACTTTGGATGGTTGA [3d582] returned a fraction ligated of 0.375.

In turn, TACACTGTCGTAAGACACTTTGGTGGGTTGA [3d580] had a fraction ligated of 0.151.

TACACTGTCGTAAGACATTTGGATGGGTTGA [3d577] gave a fraction ligated of 0.617.

TACACTGTCGTAAGACCTTTGGATGGGTTGA [3d576] yielded a fraction ligated of 0.752.

As to TACACTGTCGTAAGCACTTTGGATGGGTTGA [3d574], the fraction ligated turned out to be 0.463.

In turn, TACACTGTCGTAGACACTTTGGATGGGTTGA [3d572] displayed a fraction ligated of 0.322.

Regarding TACACTGTCTAAGACACTTTGGATGGGTTGA [3d570], the fraction ligated was found to be 0.266.

Regarding TACACTGTGTAAGACACTTTGGATGGGTTGA [3d569], the fraction ligated worked out at 0.632.

In turn, TACACTTCGTAAGACACTTTGGATGGGTTGA [3d567] gave a fraction ligated of 0.0399.

The sequence TACACTTGCGAAGACACTTTGGATGGGTTGA [3d603] came in with a fraction ligated of 0.157.

The sequence TACACTTGCGTAAACACTTTGGATGGGTTGA [3d605] returned a fraction ligated of 0.036.

On to TACACTTGCGTAAGAACTTTGGATGGGTTGA [3d607], for which the fraction ligated is 0.015.

Turning to TACACTTGCGTAAGACACTTGGATGGGTTGA [3d610], the fraction ligated turned out to be 0.0197.

The sequence TACACTTGCGTAAGACACTTTGATGGGTTGA [3d611] had a fraction ligated of 0.0347.

TACACTTGCGTAAGACACTTTGGAGGGTTGA [3d613] registered a fraction ligated of 0.044.

As to TACACTTGCGTAAGACACTTTGGATGGGTTA [3d615], the fraction ligated is 0.013.

Take TACACTTGCGTAAGACACTTTGGATGGGTTG [3d616]: the fraction ligated came to 0.118.

For TACACTTGCGTAAGACACTTTGGATGGGTTGA [2d52], the fraction ligated was 0.115.

TACACTTGCGTAAGACACTTTGGATGGTTGA [3d614] showed a fraction ligated of 0.102.

TACACTTGCGTAAGACACTTTGGTGGGTTGA [3d612] displayed a fraction ligated of 0.0235.

The sequence TACACTTGCGTAAGACATTTGGATGGGTTGA [3d609] had a fraction ligated of 0.422.

In turn, TACACTTGCGTAAGACCTTTGGATGGGTTGA [3d608] yielded a fraction ligated of 0.0714.

TACACTTGCGTAAGCACTTTGGATGGGTTGA [3d606]: the fraction ligated was determined as 0.764.

Sequence TACACTTGCGTAGACACTTTGGATGGGTTGA [3d604] came in with a fraction ligated of 0.0967.

In turn, TACACTTGCTAAGACACTTTGGATGGGTTGA [3d602] came in with a fraction ligated of 0.196.

Consider TACACTTGGTAAGACACTTTGGATGGGTTGA [3d601], for which the fraction ligated is 0.0847.

In turn, TACACTTGTCAAGACACTTTGGATGGGTTGA [3d632] returned a fraction ligated of 0.167.

Turning to TACACTTGTCGAAACACTTTGGATGGGTTGA [3d647], the fraction ligated came to 0.16.

As for TACACTTGTCGAAGAACTTTGGATGGGTTGA [3d649], the fraction ligated amounted to 0.195.

In turn, TACACTTGTCGAAGACACTTGGATGGGTTGA [3d652] displayed a fraction ligated of 0.109.

For TACACTTGTCGAAGACACTTTGATGGGTTGA [3d653], the fraction ligated is 0.0665.

TACACTTGTCGAAGACACTTTGGAGGGTTGA [3d655] returned a fraction ligated of 0.126.

As to TACACTTGTCGAAGACACTTTGGATGGGTTA [3d657], the fraction ligated stood at 0.13.

For the sequence TACACTTGTCGAAGACACTTTGGATGGGTTG [3d658], the fraction ligated came out at 0.593.

For the sequence TACACTTGTCGAAGACACTTTGGATGGGTTGA [2d55], the fraction ligated was found to be 0.603.

The sequence TACACTTGTCGAAGACACTTTGGATGGTTGA [3d656] returned a fraction ligated of 0.505.

TACACTTGTCGAAGACACTTTGGTGGGTTGA [3d654] registered a fraction ligated of 0.115.

Turning to TACACTTGTCGAAGACATTTGGATGGGTTGA [3d651], the fraction ligated amounted to 0.444.

For the sequence TACACTTGTCGAAGACCTTTGGATGGGTTGA [3d650], the fraction ligated turned out to be 0.1.

Sequence TACACTTGTCGAAGCACTTTGGATGGGTTGA [3d648] yielded a fraction ligated of 0.134.

TACACTTGTCGAGACACTTTGGATGGGTTGA [3d646] returned a fraction ligated of 0.195.

Take TACACTTGTCGTAAAACTTTGGATGGGTTGA [3d672]: the fraction ligated turned out to be 0.0463.

Sequence TACACTTGTCGTAAACACTTGGATGGGTTGA [3d675] came in with a fraction ligated of 0.0236.

In turn, TACACTTGTCGTAAACACTTTGATGGGTTGA [3d676] returned a fraction ligated of 0.0132.

Consider TACACTTGTCGTAAACACTTTGGAGGGTTGA [3d678], for which the fraction ligated is 0.0486.

The record behind these values is the supplement of paper PMC6755084.
